From IntAct's records for PubMed 31515488

B1: Spindle and kinetochore-associated protein 3 (Homo sapiens), Q8IX90 (parent)
chain: MDPIRSFCGKLRSLASTLDCETARLQRALDGEESDFEDYPMRILYDLHSEVQTLKDDVNILLDKARLENQEGIDFIKATKVLMEKNSMDIMKIREYFQKYGYSPRVKKNSVHEQEAINSDPELSNCENFQKTDVKDDLSDPPVASSCISEKSPRSPQLSDFGLERYIVSQVLPNPPQAVNNYKEEPVIVTPPTKQSLVKVLKTPKCALKMDDFECVTPKLEHFGISEYTMCLNEDYTMGLKNARNNKSEEAIDTESRLNDNVFATPSPIIQQLEKSDAEYTNSPLVPTFCTPGLKIPSTKNSIALVSTNYPLSKTNSSSNDLEVEDRTSLVLNSDTCFENLTDPSSPTISSYENLLRTPTPPEVTKIPEDILQLLSKYNSNLATPIAIKAVPPSKRFLKHGQNIRDVSNKEN
B2: Microtubule-associated tumor suppressor candidate 2 (Homo sapiens), Q5JR59-3 (parent)
chain: MGHCCCKPYNCLQCLDKTNESALVKEKELSIELANIRDEVAFHTAKCEKLQKEKEELERRFEDEVKRLGWQQQAELQELEERLQLQFEAEMARLQEEHGDQLLSIRCQHQEQVEDLTASHDAALLEMENNHTVAITILQDDHDHKVQELMSTHELEKKELEENFEKLRLSLQDQVDTLTFQSQSLRDRARRFEEALRKNTEEQLEIALAPYQHLEEDMKSLKQVLEMKNQQIHEQEKKILELEKLAEKNIILEEKIQVLQQQNEDLKARIDQNTVVTRQLSEENANLQEYVEKETQEKKRLSRTNEELLWKLQTGDPTSPIKLSPTSPVYRGSSSGPSSPARVSTTPR
partner: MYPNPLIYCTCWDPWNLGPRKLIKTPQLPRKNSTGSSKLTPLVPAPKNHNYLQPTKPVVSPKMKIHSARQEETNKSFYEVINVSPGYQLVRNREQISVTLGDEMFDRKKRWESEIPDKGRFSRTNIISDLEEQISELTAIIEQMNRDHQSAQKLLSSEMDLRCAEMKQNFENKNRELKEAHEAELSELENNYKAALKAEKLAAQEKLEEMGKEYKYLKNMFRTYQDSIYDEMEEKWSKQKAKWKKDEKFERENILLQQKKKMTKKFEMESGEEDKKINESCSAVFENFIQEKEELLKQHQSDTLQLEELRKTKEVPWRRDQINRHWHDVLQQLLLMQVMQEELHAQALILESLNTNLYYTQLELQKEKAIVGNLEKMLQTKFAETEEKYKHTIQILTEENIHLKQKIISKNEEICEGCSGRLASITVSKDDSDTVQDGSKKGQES
B3: Keratin, type I cytoskeletal 13 (Homo sapiens), P13646 (parent)
chain: MSLRLQSSSASYGGGFGGGSCQLGGGRGVSTCSTRFVSGGSAGGYGGGVSCGFGGGAGSGFGGGYGGGLGGGYGGGLGGGFGGGFAGGFVDFGACDGGLLTGNEKITMQNLNDRLASYLEKVRALEEANADLEVKIRDWHLKQSPASPERDYSPYYKTIEELRDKILTATIENNRVILEIDNARLAADDFRLKYENELALRQSVEADINGLRRVLDELTLSKTDLEMQIESLNEELAYMKKNHEEEMKEFSNQVVGQVNVEMDATPGIDLTRVLAEMREQYEAMAERNRRDAEEWFHTKSAELNKEVSTNTAMIQTSKTEITELRRTLQGLEIELQSQLSMKAGLENTVAETECRYALQLQQIQGLISSIEAQLSELRSEMECQNQEYKMLLDIKTRLEQEIATYRSLLEGQDAKMIGFPSSAGSVSPRSTSVTTTSSASVTTTSNASGRRTSDVRRP
B4: Microtubule-associated tumor suppressor candidate 2 (Homo sapiens), Q5JR59-3 (parent)
chain: B2 chain
B5: UPF0488 protein C8orf33 (Homo sapiens), Q9H7E9 (parent)
chain: MAALGHLAGEAAAAPGPGTPCASRGARLPGPVSSARNPSTVCLCPEQPTCSNADSRAHPLGDEGGTASKKQKNKKKTRNRASVANGGEKASEKLAPEEVPLSAEAQAQQLAQELAWCVEQLELGLKRQKPTPKQKEQAIGAIRTLRSKRTPLPRKRQLMHSLFGDYRAQMEAEWREALRALRAAAYSAQVQPVDGATRKKSQRVCRPRSIWRAKATLDMPDEEFRFNFF
B6: Maspardin (Homo sapiens), Q9NZD8 (parent)
chain: MGEIKVSPDYNWFRGTVPLKKIIVDDDDSKIWSLYDAGPRSIRCPLIFLPPVSGTADVFFRQILALTGWGYRVIALQYPVYWDHLEFCDGFRKLLDHLQLDKVHLFGASLGGFLAQKFAEYTHKSPRVHSLILCNSFSDTSIFNQTWTANSFWLMPAFMLKKIVLGNFSSGPVDPMMADAIDFMVDRLESLGQSELASRLTLNCQNSYVEPHKIRDIPVTIMDVFDQSALSTEAKEEMYKLYPNARRAHLKTGGNFPYLCRSAEVNLYVQIHLLQFHGTKYAAIDPSMVSAEELEVQKGSLGISQEEQ
partner: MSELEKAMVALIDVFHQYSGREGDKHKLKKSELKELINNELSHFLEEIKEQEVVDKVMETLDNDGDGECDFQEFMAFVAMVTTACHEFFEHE

Variants of: B1
Settings: with ska1_human SKA1, Q96BD8
ska1_human SKA1, Q96BD8, sequence (Q96BD8 whole entry): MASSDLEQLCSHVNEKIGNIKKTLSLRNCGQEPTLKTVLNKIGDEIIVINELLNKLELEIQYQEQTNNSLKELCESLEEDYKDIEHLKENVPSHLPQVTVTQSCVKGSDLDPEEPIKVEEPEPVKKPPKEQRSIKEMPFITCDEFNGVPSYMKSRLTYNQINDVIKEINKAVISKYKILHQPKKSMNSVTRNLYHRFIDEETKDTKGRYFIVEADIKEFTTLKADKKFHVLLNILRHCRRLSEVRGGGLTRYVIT

With T348M as the variant, how does the “effect of a mutation on the interaction” value read?
The value was “with no effect”.

T254A was tested. Which “effect of a mutation on the interaction” value did it give?
Its value is “with no effect”.

D335E was tested. Which “effect of a mutation on the interaction” value did it give?
Its value is “with no effect”.

Which “effect of a mutation on the interaction” value does the source give for A28V here?
Its value is “with no effect”.

How did the “effect of a mutation on the interaction” value turn out when R396M was run?
Its value is “with no effect”.

Variants of: B2
Settings: with facc1_human FLACC1, Q96Q35

For A89V, which “effect of a mutation on the interaction” value is on record?
Its value is “with no effect”.

Variants of: B3
Settings: with k22e_human KRT2, P35908

How did the “effect of a mutation on the interaction” value turn out when R355H was run?
Its value is “with no effect”.

Variants of: B3
Settings: with k2c4_human KRT4, P19013

R355H was tested. Which “effect of a mutation on the interaction” value did it give?
The value was “with no effect”.

Variants of: B3
Settings: with KRT6A

How did the “effect of a mutation on the interaction” value turn out when R355H was run?
Its value is “with no effect”.

Variants of: B3
Settings: with ccnc_human CCNC

How did the “effect of a mutation on the interaction” value turn out when R355H was run?
The value was “with no effect”.

Variants of: B4
Settings: with catz_human CTSZ

For A89V, which “effect of a mutation on the interaction” value is on record?
The value was “with no effect”.

Variants of: B4
Settings: with zn136_human ZNF136, P52737
zn136_human ZNF136, P52737, sequence (P52737 whole entry): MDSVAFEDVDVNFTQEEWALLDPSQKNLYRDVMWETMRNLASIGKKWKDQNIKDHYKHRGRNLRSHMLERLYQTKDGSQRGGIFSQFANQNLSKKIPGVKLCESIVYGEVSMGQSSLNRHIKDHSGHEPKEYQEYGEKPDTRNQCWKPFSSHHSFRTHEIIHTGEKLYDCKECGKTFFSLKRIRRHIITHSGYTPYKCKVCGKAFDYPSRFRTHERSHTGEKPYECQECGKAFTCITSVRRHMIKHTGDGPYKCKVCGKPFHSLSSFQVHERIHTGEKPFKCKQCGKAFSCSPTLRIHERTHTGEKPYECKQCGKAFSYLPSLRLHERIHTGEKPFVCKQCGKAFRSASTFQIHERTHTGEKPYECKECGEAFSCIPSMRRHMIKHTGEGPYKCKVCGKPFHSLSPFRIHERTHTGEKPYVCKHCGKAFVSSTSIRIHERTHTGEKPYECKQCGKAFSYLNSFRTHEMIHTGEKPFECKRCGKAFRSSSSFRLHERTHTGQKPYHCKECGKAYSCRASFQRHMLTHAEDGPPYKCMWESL

A89V was tested. Which “effect of a mutation on the interaction” value did it give?
The value was “with no effect”.

Variants of: B4
Settings: with TSGA10IP

Which “effect of a mutation on the interaction” value does the source give for A89V here?
The value was “with no effect”.

Variants of: B4
Settings: with kat5_human KAT5, Q92993
kat5_human KAT5, Q92993, sequence (Q92993 whole entry, looked up): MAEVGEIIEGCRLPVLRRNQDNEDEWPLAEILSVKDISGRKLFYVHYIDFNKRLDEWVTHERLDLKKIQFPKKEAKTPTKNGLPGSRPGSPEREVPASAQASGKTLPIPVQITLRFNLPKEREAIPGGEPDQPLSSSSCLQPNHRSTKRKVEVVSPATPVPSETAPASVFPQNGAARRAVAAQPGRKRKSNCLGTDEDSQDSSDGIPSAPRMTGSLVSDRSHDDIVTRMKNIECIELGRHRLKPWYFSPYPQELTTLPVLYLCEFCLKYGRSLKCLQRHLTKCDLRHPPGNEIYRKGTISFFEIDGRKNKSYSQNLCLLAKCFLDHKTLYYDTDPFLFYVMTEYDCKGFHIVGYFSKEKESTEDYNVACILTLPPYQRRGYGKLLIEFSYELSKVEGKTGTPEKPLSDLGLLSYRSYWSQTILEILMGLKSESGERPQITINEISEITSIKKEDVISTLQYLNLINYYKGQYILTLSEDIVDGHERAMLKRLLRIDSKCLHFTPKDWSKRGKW

A89V was tested. Which “effect of a mutation on the interaction” value did it give?
The value was “with no effect”.

Variants of: B4
Settings: with cd5r1_human CDK5R1, Q15078
cd5r1_human CDK5R1, Q15078, sequence (Q15078 whole entry): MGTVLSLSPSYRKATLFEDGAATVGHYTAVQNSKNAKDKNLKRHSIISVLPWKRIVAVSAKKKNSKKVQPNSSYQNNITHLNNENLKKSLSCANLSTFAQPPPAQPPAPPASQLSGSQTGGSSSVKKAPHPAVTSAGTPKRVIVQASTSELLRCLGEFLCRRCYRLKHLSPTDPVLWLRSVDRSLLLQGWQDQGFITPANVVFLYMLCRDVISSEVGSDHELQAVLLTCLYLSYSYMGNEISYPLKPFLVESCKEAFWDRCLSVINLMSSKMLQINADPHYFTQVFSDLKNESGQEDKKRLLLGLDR

A89V was tested. Which “effect of a mutation on the interaction” value did it give?
Its value is “with no effect”.

Variants of: B4
Settings: with bmp7_human BMP7, P18075
bmp7_human BMP7, P18075, sequence (P18075 whole entry): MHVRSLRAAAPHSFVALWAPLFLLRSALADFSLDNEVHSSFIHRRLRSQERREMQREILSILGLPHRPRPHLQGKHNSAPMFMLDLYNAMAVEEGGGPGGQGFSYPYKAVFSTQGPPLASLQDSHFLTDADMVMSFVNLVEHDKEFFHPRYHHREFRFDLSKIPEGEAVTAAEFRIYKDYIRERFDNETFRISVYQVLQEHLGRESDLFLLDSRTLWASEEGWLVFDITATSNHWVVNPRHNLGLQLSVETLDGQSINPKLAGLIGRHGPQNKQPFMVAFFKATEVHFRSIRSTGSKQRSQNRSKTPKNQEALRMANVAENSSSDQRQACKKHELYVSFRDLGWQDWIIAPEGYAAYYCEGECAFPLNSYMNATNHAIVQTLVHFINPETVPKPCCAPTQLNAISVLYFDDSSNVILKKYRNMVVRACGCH

Which “effect of a mutation on the interaction” value does the source give for A89V here?
The value was “with no effect”.

Variants of: B4
Settings: with gtpba_human GTPBP10, A4D1E9
gtpba_human GTPBP10, A4D1E9, sequence (A4D1E9 whole entry): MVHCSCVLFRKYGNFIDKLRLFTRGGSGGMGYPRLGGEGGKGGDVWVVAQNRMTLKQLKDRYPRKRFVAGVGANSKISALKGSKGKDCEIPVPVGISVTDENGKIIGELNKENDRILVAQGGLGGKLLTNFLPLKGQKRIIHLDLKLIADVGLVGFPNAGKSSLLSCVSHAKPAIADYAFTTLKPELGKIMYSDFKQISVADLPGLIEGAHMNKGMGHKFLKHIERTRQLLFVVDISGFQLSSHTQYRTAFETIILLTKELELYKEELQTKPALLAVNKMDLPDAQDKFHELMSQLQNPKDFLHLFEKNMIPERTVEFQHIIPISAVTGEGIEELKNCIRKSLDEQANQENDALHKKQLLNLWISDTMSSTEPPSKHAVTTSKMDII

A89V was tested. Which “effect of a mutation on the interaction” value did it give?
The value was “with no effect”.

Variants of: B4
Settings: with cdkl3_human CDKL3, Q8IVW4
cdkl3_human CDKL3, Q8IVW4, sequence (Q8IVW4 whole entry, looked up): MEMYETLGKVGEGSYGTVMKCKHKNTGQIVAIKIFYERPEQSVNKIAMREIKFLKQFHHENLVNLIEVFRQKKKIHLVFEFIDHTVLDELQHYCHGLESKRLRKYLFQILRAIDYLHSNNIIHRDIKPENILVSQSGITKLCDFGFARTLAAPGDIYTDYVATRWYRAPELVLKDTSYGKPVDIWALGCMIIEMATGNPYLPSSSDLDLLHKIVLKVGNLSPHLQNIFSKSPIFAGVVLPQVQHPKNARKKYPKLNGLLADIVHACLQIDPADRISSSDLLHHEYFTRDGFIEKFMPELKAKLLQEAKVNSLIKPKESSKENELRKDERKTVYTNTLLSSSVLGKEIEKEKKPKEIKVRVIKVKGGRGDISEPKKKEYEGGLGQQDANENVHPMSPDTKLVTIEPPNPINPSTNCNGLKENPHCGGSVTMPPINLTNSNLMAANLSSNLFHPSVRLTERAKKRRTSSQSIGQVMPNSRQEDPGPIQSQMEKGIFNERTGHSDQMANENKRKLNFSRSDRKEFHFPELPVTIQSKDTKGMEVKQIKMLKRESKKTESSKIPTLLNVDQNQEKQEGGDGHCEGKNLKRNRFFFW

How did the “effect of a mutation on the interaction” value turn out when A89V was run?
Its value is “with no effect”.

Variants of: B4
Settings: with cu058_human C21orf58, P58505
cu058_human C21orf58, P58505, sequence (P58505 whole entry): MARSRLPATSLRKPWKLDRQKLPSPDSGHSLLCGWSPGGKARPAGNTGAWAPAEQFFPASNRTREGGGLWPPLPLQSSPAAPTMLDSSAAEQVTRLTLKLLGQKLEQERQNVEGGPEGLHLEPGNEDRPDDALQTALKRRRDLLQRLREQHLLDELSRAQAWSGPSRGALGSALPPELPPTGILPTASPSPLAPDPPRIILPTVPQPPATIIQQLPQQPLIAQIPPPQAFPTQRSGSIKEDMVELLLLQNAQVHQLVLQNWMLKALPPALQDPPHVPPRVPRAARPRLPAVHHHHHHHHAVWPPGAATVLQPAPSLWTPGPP

Which “effect of a mutation on the interaction” value does the source give for A89V here?
The value was “with no effect”.

Variants of: B4
Settings: with zn426_human ZNF426, Q9BUY5

Which “effect of a mutation on the interaction” value does the source give for A89V here?
The value was “with no effect”.

Variants of: B4
Settings: with snai1_human SNAI1, O95863
snai1_human SNAI1, O95863, sequence (O95863 whole entry): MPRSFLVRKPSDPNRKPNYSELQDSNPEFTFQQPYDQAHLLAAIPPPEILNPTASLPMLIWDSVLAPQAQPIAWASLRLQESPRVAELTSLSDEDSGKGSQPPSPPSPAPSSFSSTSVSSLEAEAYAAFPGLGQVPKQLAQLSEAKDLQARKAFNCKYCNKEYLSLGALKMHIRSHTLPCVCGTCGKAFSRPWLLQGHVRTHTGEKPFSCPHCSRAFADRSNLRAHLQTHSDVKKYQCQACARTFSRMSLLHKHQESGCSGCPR

For A89V, which “effect of a mutation on the interaction” value is on record?
The value was “with no effect”.

Variants of: B4
Settings: with zn329_human ZNF329, Q86UD4
zn329_human ZNF329, Q86UD4, sequence (Q86UD4 whole entry): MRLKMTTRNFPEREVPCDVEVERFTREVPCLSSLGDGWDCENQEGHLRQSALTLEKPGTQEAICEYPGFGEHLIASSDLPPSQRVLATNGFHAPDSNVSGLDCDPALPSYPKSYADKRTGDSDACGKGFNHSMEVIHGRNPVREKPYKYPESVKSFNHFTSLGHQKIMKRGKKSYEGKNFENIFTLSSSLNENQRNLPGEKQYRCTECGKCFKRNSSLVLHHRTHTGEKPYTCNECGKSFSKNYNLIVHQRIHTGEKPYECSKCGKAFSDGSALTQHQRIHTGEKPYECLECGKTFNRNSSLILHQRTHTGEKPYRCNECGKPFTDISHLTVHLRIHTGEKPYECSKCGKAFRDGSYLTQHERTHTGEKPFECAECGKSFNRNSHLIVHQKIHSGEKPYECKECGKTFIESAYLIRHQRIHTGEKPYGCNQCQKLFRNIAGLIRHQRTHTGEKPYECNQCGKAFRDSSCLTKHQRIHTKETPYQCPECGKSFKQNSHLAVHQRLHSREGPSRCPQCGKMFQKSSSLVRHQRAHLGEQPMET

Which “effect of a mutation on the interaction” value does the source give for A89V here?
The value was “with no effect”.

Variants of: B5
Settings: with ldoc1_human LDOC1, O95751
ldoc1_human LDOC1, O95751, sequence (O95751 whole entry): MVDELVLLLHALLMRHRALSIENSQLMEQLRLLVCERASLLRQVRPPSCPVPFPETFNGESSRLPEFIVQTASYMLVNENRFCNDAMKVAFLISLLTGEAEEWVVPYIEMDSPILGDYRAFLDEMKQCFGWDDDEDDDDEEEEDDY

With G25R as the variant, how does the “effect of a mutation on the interaction” value read?
The value was “with no effect”.

Variants of: B5
Settings: with cep70_human CEP70, Q8NHQ1
cep70_human CEP70, Q8NHQ1, sequence (Q8NHQ1 whole entry): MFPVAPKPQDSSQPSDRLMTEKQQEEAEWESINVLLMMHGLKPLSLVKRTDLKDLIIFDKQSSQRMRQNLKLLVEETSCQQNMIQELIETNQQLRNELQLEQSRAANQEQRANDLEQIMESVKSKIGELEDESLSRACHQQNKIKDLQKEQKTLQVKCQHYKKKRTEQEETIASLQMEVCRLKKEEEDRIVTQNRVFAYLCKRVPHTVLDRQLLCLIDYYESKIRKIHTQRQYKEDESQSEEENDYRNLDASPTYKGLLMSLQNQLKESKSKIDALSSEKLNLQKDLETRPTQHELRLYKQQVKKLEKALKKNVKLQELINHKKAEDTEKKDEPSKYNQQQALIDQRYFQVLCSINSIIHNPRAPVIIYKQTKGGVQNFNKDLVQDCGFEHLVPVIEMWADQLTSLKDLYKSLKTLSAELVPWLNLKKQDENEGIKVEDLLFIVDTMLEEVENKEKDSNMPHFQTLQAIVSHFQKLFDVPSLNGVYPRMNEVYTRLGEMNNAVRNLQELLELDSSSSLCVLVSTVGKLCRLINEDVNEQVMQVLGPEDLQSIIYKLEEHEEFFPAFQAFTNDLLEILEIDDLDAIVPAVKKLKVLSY

For G25R, which “effect of a mutation on the interaction” value is on record?
Its value is “with no effect”.

Variants of: B6
Settings: with S100B

Which “effect of a mutation on the interaction” value does the source give for H272D here?
The value was “disrupting interaction strength”.
